Experimental data as given in article PMC6589575.

Molecular target: His6–Drp1, full-length Drp1-short isoform
Assay: co-sedimentation

“His6–Drp1, full-length Drp1-short isoform (enzyme)” was tested, and the percent of His6–Drp1 in the pellet (with GMP–PCP and His6–cyclin C) was 34% and the percent of His6–Drp1 in the pellet (with GMP–PCP) was 16%.
